{"source": "patent US20260053918A1", "molecular_target": "CD19 (UniProt P15391)", "assay": "cell-based or functional assay"}
{"substance": "CD19R:CD28:z(CO) CAR containing the 2 point mutations, L235E and N297Q, in the CH2 portion of the IgG4 spacer (CD19R(EQ)), expressed on CMV/CAR T cells", "values": [{"measurement": "total cell increase after 2 rounds of stimulation with irradiated CD19-expressing NIH3T3 cells", "value": "120 to 150", "unit": "fold"}]}
